In US20150297742A1:

Tests used:
[1] = target: epidermal growth factor receptor (EGFR) (human) (UniProt P00533); assay: 125I-labelled conjugate on A431 cells, against unmodified matuzumab
[2] = target: epidermal growth factor receptor (EGFR) (human) (UniProt P00533); assay: 125I-labelled conjugate on EGFR-positive A431 cells, 37 C, gamma counting (membrane bound plus internalized)

Row | Substance | fold of the binding percentage of the unmodified mAb [1] | % of the applied dose bound (% of applied dose per 10^6 cells) [2]
1 | mAb-dTAT (matuzumab conjugated to dendritic tetravalent TAT (47-60)) (antibody) | 3 fold | 
2 | mAb-dPenetratin (matuzumab conjugated to dendritic tetravalent penetratin) (antibody) | 3 fold | 68
3 | mAb-dSynB1 (matuzumab conjugated to dendritic tetravalent SynB1) (antibody) |  | 47
4 | mAb-dMTS (matuzumab conjugated to dendritic tetravalent MTS) (antibody) | 3 fold | 
5 | mAb-dR9 (matuzumab conjugated to dendritic tetravalent R9) (antibody) | 4.2 fold | 92
